In PMC2147998:

Target: UNG2 S23D/T60D/S64D (human) (UniProt P13051)
Assay: co-IP

Chain of UniProt P13051 (P13051 whole entry S23D/T60D/S64D): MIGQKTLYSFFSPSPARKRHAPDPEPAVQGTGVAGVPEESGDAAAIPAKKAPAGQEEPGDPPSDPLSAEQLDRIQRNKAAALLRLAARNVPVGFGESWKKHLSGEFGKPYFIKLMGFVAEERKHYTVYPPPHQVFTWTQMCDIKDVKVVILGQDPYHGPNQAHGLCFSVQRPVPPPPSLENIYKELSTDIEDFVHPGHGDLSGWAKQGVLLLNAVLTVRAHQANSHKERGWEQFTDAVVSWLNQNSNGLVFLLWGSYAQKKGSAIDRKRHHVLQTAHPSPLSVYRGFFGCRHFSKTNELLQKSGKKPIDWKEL

RPA-binding capacity relative to WT UNG2: 40%
Substance: replication protein A (RPA) (from UniProt P15927 1-270) (complex)
